Earlier results as cited in patent EP4725499A1, “M[…] PROTEIN FOR IMM[…] ALZHEIMER'S DISEASE” (Centro De Neurociencias De Cuba, priority 2023, dated 2024).

Target: Aβ (Homo sapiens, UniProt P05067)
Sequence (P05067 672-713 limits assumed): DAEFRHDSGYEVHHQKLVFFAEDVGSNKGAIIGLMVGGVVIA

AN1792: AN1792 vaccine, consisting of a synthetic Aβ1-42 peptide
time after which responders maintained an anti-AN-1792 antibody response (follow-up of responders, 1-3 injections, low titers): approximately 4.6 years
patients who developed an anti-Aβ antibody response (patients with mild to moderate AD, phase II): 19.7%
progression of cognitive decline (responders compared with placebo-treated patients, follow-up): significantly reduced
